According to patent US20220213203A1 (MacroGenics, published 2022):

How the values were obtained:
[1] = biological target: CD123 as arrayed by human cells (human, UniProt P26951 19-378); test: cell-based or functional assay
[2] = biological target: Cynomolgus CD3ε/δ (cynomolgus monkey) (UniProt Q95LI5); test: kinetic binding analysis; method not given
[3] = biological target: Human CD3ε/δ (human) (UniProt P07766); test: kinetic binding analysis; method not given
Human CD3ε/δ (human), sequence (P07766 23-126, stated change not applied, chain 1 of 2): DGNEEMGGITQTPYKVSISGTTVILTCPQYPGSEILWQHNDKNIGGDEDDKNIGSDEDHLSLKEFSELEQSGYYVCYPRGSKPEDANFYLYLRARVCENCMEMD
Human CD3ε/δ (human), sequence (P04234 22-105, stated change not applied, chain 2 of 2, further chain): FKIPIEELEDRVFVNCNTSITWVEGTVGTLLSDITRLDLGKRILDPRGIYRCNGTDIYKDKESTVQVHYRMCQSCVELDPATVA

CD123 as arrayed by human cells, sequence (P26951 19-378): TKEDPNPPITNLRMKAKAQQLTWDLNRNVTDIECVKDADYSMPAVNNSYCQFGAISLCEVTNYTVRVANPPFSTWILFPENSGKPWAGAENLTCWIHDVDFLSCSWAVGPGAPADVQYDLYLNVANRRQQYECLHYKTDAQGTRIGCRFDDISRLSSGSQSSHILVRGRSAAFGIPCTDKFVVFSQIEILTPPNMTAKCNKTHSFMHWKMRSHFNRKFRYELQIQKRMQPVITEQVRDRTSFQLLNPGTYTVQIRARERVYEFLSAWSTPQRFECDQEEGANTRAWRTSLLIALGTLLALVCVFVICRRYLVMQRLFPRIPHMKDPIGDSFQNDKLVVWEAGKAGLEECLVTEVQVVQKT
Cynomolgus CD3ε/δ (cynomolgus monkey), sequence (Q95LI5 22-117, stated change not applied, chain 1 of 2): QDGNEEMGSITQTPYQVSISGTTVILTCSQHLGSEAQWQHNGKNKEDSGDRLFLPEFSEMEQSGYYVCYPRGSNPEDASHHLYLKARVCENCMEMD
Cynomolgus CD3ε/δ (cynomolgus monkey), sequence (Q95LI8 22-105, stated change not applied, chain 2 of 2, further chain): as the sequence (P04234 22-105, stated change not applied, chain 2 of 2, further chain) above, with I5V, N15K, I20V, S32T, D33N, I34N, T64A, S74N, V83L counted along it

B1: DART-A (bispecific antibody)
chain 1: QAVVTQEPSLTVSPGGTVTLTCRSSTGAVTTSNYANWVQQKPGQAPRGLIGGTNKRAPWTPARFSGSLLGGKAALTITGAQAEDEADYYCALWYSNLWVFGGGTKLTVLGGGGSGGGGEVQLVQSGAELKKPGASVKVSCKASGYTFTDYYMKWVRQAPGQGLEWIGDIIPSNGATFYNQKFKGRVTITVDKSTSTAYMELSSLRSEDTAVYYCARSHLLRASWFAYWGQGTLVTVSSGGCGGGEVAALEKEVAALEKEVAALEKEVAALEK
chain 2: DFVMTQSPDSLAVSLGERVTMSCKSSQSLLNSGNQKNYLTWYQQKPGQPPKLLIYWASTRESGVPDRFSGSGSGTDFTLTISSLQAEDVAVYYCQNDYSYPYTFGQGTKLEIKGGGSGGGGEVQLVESGGGLVQPGGSLRLSCAASGFTFSTYAMNWVRQAPGKGLEWVGRIRSKYNNYATYYADSVKDRFTISRDDSKNSLYLQMNSLKTEDTAVYYCVRHGNFGNSYVSWFAYWGQGTLVTVSSGGCGGGKVAALKEKVAALKEKVAALKEKVAALKE
EC50 of redirected killing, Kasumi-3 target cells, E:T = 10:1 [1]: 0.01 ng/mL | EC50 of redirected killing, Molm13 target cells, E:T = 10:1 [1]: 0.18 ng/mL | EC50 of redirected killing, RS4-11 target cells, E:T = 10:1 [1]: 0.5 ng/mL | EC50 of redirected killing, TF-1 target cells, E:T = 10:1 [1]: 0.46 ng/mL | EC50 of redirected killing, THP-1 target cells, E:T = 10:1 [1]: 0.24 ng/mL | Kd [2]: 9.2 nM | koff [2]: 0.005 s⁻¹ | kon [2]: 550000 M⁻¹ s⁻¹ | Kd [3]: 9 nM | koff [3]: 0.005 s⁻¹ | kon [3]: 570000 M⁻¹ s⁻¹
